This sample holds only a part of the variants without activity.
Legend:
biotinyl-Met-oxazolone = assay: self-aminoacylation, catalytic enhancement (BMO) (fold over background); higher = more active; k-Seq, kA / k0A0; sequences stand for … in GGGAAUGGAUCCACAUCUACGAAUUC…UUCACUGCAGACUUGACGAAGCUG
Procedure, shortened: (§1)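 Mutagenized RNA pools (0.43 μM; 21-nt variable region) were treated with 2–1250 μM of each biotinyl-aminoacyl-oxazolone. Conditions were 50 μL HEPES/NaCl/KCl/MgCl2/CaCl2 buffer, 5% acetonitrile, pH 6.9–7.0, room temperature, 90 minutes. Catalytic enhancement, the median kA relative to the uncatalyzed rate, was derived from streptavidin capture, qPCR and Illumina sequencing.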

biotinyl-Phe-oxazolone = assay: self-aminoacylation, catalytic enhancement (BFO) (fold over background); higher = more active; k-Seq, kA / k0A0; sequences stand for … in GGGAAUGGAUCCACAUCUACGAAUUC…UUCACUGCAGACUUGACGAAGCUG
Procedure, shortened: as §1

biotinyl-Val-oxazolone = assay: self-aminoacylation, catalytic enhancement (BVO) (fold over background); higher = more active; k-Seq, kA / k0A0; sequences stand for … in GGGAAUGGAUCCACAUCUACGAAUUC…UUCACUGCAGACUUGACGAAGCUG
Procedure, shortened: as §1

biotinyl-Ile-oxazolone = assay: self-aminoacylation, catalytic enhancement (BIO) (fold over background); higher = more active; k-Seq, kA / k0A0; sequences stand for … in GGGAAUGGAUCCACAUCUACGAAUUC…UUCACUGCAGACUUGACGAAGCUG
Procedure, shortened: as §1

biotinyl-Trp-oxazolone = assay: self-aminoacylation, catalytic enhancement (BWO) (fold over background); higher = more active; k-Seq, kA / k0A0; sequences stand for … in GGGAAUGGAUCCACAUCUACGAAUUC…UUCACUGCAGACUUGACGAAGCUG
Procedure, shortened: as §1

biotinyl-Leu-oxazolone = assay: self-aminoacylation, catalytic enhancement (BLO) (fold over background); higher = more active; k-Seq, kA / k0A0; sequences stand for … in GGGAAUGGAUCCACAUCUACGAAUUC…UUCACUGCAGACUUGACGAAGCUG
Procedure, shortened: as §1

Sequence | self-aminoacylation (biotinyl-Met-oxazolone) | self-aminoacylation (biotinyl-Phe-oxazolone) | self-aminoacylation (biotinyl-Val-oxazolone) | self-aminoacylation (biotinyl-Ile-oxazolone) | self-aminoacylation (biotinyl-Trp-oxazolone) | self-aminoacylation (biotinyl-Leu-oxazolone)
ACUACCCUGAUCAUCGAGUGA [Fam2.1 aminoacylation ribozyme variant] | 5.52 | 6.61 | 3.38 | 3.87 | 7.58 | 5.88
ACUACCCUGGUCAUCGAGUGA [Fam2.1 aminoacylation ribozyme variant] | 44.3 | 266 | 17.4 | 16.2 | 45.2 | 43.4
ACUACCCUGGUCAUGGAGUGA [Fam2.1 aminoacylation ribozyme variant] | 3.35 | 11.6 | 2.59 | 2.86 | 3.33 | 3.32
ACUACCCUUGUCAUCGAGUGA [Fam2.1 aminoacylation ribozyme variant] | 6.22 | 28.7 | 3.24 | 3.28 | 6.54 | 6.34
ACUACCGUGGUCAUCGAGUGA [Fam2.1 aminoacylation ribozyme variant] | 5.28 | 18 | 3.29 | 3.41 | 6.91 | 5.21
ACUACGCUGGUCAUCGAGUGA [Fam2.1 aminoacylation ribozyme variant] | 5.77 | 35.1 | 4.04 | 4.74 | 7.58 | 5.5
ACUCACCUAAGUCAUCGGGUG [Fam2.2 aminoacylation ribozyme variant] | 9.14 | 67.2 | 5.83 | 5.02 | 10.6 | 10.5
ACUCACCUACGUCAUCGGGUG [Fam2.2 aminoacylation ribozyme variant] | 6.25 | 57.3 | 4.69 | 3.98 | 6.64 | 7.79
ACUCACCUAGGGCAUCGGGUG [Fam2.2 aminoacylation ribozyme variant] | 3.92 | 18.2 | 3.83 | 4.42 | 6.35 | 5.19
ACUCACCUAGGUAAUCGGGUG [Fam2.2 aminoacylation ribozyme variant] | 4.2 | 23.9 | 2.85 | 3.22 | 4.3 | 3.66
ACUCACCUAGGUCAUCGGAUG [Fam2.2 aminoacylation ribozyme variant] | 0.912 | 0.718 | 1.02 | 1.13 | 1.48 | 0.812
ACUCACCUAGGUCAUCUGGUG [Fam2.2 aminoacylation ribozyme variant] | 1.87 | 6.43 | 1.57 | 1.68 | 2.35 | 2.03
ACUCACCUAGGUCAUUGGGUG [Fam2.2 aminoacylation ribozyme variant] | 2.35 | 14.3 | 2.56 | 2.31 | 3.78 | 2.91
ACUCACCUAGGUUAUCGGGUG [Fam2.2 aminoacylation ribozyme variant] | 3.92 | 46 | 5.05 | 4.89 | 7.29 | 5.42
ACUCAUCUAGGUCAUCGGGUG [Fam2.2 aminoacylation ribozyme variant] | 6.28 | 42.4 | 5.04 | 5.55 | 7.26 | 6.97
ACUUUUGCUAAUAGUCGCAAG [Fam3.1 aminoacylation ribozyme variant] | 2.59 | 3.71 | 2.57 | 2.75 | 2.56 | 2.68
AGGUUUGCUAACAGUCGCAAG [Fam3.1 aminoacylation ribozyme variant] | 1.68 | 15.2 | 1.25 | 1.57 | 4.91 | 1.66
AGGUUUGCUAAUAGUCGAAAG [Fam3.1 aminoacylation ribozyme variant] | 1.16 | 13.6 | 1.02 | 1.2 | 3.4 | 0.991
AGGUUUGCUAAUAGUCGCAAU [Fam3.1 aminoacylation ribozyme variant] | 1.63 | 2.94 | 1.85 | 2.08 | 2.08 | 1.86
AGGUUUGCUAUUAGUCGCAAG [Fam3.1 aminoacylation ribozyme variant] | 1.17 | 3.21 | 1.17 | 1.28 | 1.08 | 1.49
AGUAACCUAGGUCAUCGGGUG [Fam2.2 aminoacylation ribozyme variant] | 5.37 | 33.3 | 3.63 | 4.57 | 7.15 | 6.07
AGUACACUGGUCAUCGAGUGA [Fam2.1 aminoacylation ribozyme variant] | 4.07 | 19.1 | 2.81 | 3.01 | 5.76 | 4.42
AGUACCCCGGUCAUCGAGUGA [Fam2.1 aminoacylation ribozyme variant] | 5.52 | 43.9 | 3.75 | 3.7 | 7.21 | 6.8
AGUACCCGGGUCAUCGAGUGA [Fam2.1 aminoacylation ribozyme variant] | 7.25 | 49.1 | 3.98 | 4.51 | 7.64 | 7.7
AGUACCCUGGACAUCGAGUGA [Fam2.1 aminoacylation ribozyme variant] | 5.06 | 21.2 | 2.8 | 2.69 | 5.83 | 6.32

Reference: the supplement of paper PMC9233669
